Literature values as cited in patent US11819552B2, “Antibody-drug conjugates targeting uPARAP” (RIGSHOSPITALET, priority 2016, dated 2023).

How the values were obtained:
Conditions in all cases: Jürgensen et al., 2014; cited from earlier work
[1] = system: other members of the mannose receptor family
[2] = system: uPARAP
[3] = target: T1, uPARAP (Homo sapiens, UniProt Q9UBG0)
T1 sequence (Q9UBG0 31-1479): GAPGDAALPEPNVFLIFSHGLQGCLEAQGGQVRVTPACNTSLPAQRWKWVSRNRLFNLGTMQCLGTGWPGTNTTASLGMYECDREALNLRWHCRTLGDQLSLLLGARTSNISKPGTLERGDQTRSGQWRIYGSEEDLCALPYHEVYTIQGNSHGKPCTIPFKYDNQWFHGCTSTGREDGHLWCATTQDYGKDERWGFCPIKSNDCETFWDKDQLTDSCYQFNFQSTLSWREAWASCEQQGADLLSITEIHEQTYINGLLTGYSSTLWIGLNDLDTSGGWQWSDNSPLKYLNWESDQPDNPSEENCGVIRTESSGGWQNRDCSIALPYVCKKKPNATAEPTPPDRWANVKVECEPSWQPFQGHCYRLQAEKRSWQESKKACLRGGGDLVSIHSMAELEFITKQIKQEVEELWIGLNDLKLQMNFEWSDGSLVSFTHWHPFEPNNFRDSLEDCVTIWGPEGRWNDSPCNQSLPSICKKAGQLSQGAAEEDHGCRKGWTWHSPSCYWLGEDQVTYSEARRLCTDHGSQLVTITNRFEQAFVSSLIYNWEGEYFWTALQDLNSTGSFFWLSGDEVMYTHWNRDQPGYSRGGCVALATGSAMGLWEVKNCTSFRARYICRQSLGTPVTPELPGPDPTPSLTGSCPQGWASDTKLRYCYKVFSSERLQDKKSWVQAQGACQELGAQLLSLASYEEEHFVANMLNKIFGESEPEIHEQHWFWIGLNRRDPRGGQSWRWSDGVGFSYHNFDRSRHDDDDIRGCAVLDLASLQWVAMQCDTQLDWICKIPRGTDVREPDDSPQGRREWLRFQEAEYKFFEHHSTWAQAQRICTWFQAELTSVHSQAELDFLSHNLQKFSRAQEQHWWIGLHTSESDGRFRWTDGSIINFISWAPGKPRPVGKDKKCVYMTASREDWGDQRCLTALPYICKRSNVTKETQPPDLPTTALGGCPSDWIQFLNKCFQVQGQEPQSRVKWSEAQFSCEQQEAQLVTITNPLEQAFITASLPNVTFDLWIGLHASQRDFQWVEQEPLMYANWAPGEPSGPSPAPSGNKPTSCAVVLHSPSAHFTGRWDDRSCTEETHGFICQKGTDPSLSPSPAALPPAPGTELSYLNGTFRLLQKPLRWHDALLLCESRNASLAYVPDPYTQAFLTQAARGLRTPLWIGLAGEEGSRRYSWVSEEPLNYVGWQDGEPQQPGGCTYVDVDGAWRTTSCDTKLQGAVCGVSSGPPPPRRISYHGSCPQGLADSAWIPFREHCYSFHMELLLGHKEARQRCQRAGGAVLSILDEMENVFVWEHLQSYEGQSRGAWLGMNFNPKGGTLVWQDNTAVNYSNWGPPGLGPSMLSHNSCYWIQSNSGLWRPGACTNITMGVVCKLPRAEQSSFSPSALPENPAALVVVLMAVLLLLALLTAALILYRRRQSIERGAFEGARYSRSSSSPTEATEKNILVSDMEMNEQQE

B1: mAb 5f4: mouse monoclonal IgG1K anti-uPARAP antibody, epitope in the FN-II domain (antibody, V domains shown)
VL: DIVMTQSQKFMSTSLGARVSITCKASQNVGSNVVWYQQKLGQSPKALIYSASSRFSGVPDRFTGSGSGTDFTLTISNVQSEDLAEYFCQQYNTYPLAFGAGTKLELK
VH: DVQLQESGPGLVKPSQSLSVTCTVTGYSITNAYYWNWIRHFPGNKLEWLGYIHSSGDTNYNPSLKSRISITRDTSKNQFFLQLNSVTTEDTATYYCARSPYYSNYFPYWGQGTLVTVSA
For B1, the “Binding to artificial family members with FN-II domain switched with that of uPARAP” value [1] is given as “capable of binding”, the “Binding to other mannose receptor family members in wildtype form” value [1] is given as “not capable of binding” and the “Binding to uPARAP with FN-II domain swapped with that of other family members” value [2] is given as “not capable of binding”. For the same molecule, the “Binding to wildtype uPARAP” value [3] was “capable of binding”.
